Columns and labels:
[1] = biological target: FXa-processed LOXL2, endogenous in human aortic smooth muscle cells treated with FXa (human (endogenous in HASMC)) (UniProt Q9Y4K0); assay: proximity ligation; Duolink In Situ Red mouse/rabbit kit on HASMC on coverslips, fixed but not permeabilised; cells untreated, with FXa, or with FXa + rivaroxaban for 24 h; signal as mean gray value, % of average of controls
[2] = biological target: Lysyl oxidase-like 2 (LOXL2), full-length, endogenous in human aortic smooth muscle cells (human (endogenous in HASMC)) (UniProt Q9Y4K0); assay: as above

Substance: Type IV collagen, endogenous in the matrix of human aortic smooth muscle cells (complex)
- decrease of PLA signal with FXa against controls [1]: 50 % (decrease)
- increase of PLA signal with rivaroxaban (full-length LOXL2 accumulated) [2]: 80 % (increase)

— PMC10082071
